Target: recombinant human ErbB3 monomeric protein (cleaved rhErbB3) (human) (UniProt P21860)
Assay: SPR Biacore 37 C; antibody captured on anti-human Fc, cleaved rhErbB3 (monomer) injected

U1-59 (antibody) gave a Kd of 0.53 nM.

Source: patent US20180030149A1
